# Source: doi:10.1101/2025.03.18.643923, “Widely used CaMKII regulatory segment mutations cause tight actinin binding and dendritic spine enlargement in unstimulated neurons” (bioRxiv, 2025)
# Biological target: T1, Human α-actinin-2 EF3-4 (positions 827-894) (human, UniProt P35609 827-894)
# T1 construct: α-actinin-2, human, third and fourth EF hands, positions 827-894; also called α-actinin-2 EF hands 3-4; source: E. coli Rosetta pLysS, purified (Ni-NTA, Glutathione Sepharose, Tev cleavage, Superdex 75); not shown: His, N-terminal, cleaved; GST, N-terminal, cleaved
# T1 sequence (P35609 827-894): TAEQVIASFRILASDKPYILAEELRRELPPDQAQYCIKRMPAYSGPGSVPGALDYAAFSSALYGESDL
# Assay: ITC; MicroCal PEAQ, 25 °C, 25 mM HEPES pH 7.5, 150 mM NaCl; syringe 500 μM CaMKIIα peptide, cell 50 μM EF3-4; single site binding model
# Conditions: both partners purified
row,Binder,Kd [µM]
1,"NARRKLKGAILAAMLATRNFSG (peptide, UniProt P11275 294-315, looked up, Probably a synthetic peptide; also called AA isolated regulatory segment) [CaMKIIα 294-315 peptide T305A/T306A]",14.7 ± 1.2
2,"NARRKLKGAILATMLATRNFSG (peptide, UniProt P11275 294-315, looked up, Probably a synthetic peptide; also called T305A regulatory segment) [CaMKIIα 294-315 peptide T305A]",19.4 ± 0.7
3,"LKKFNARRKLKGAILTTMLA (peptide, UniProt P11275 290-309, looked up, CaMKIIα regulatory segment, residues 290-309; Probably a synthetic peptide; also called WT CaMKIIα 290-309; N-terminally shifted regulatory segment peptide (WT)) [CaMKIIα 290-309 peptide WT]",3.46 ± 0.08

# Other lines, results leading:
row,Kd [µM],Binder
1,19.8 ± 1.9,"NARRKLKGAILTAMLATRNFSG (peptide, UniProt P11275 294-315, looked up, Probably a synthetic peptide; also called T306A regulatory segment) [CaMKIIα 294-315 peptide T306A]"
2,0.146 ± 0.012,"LKKFNARRKLKGAILAAMLA (peptide, UniProt P11275 290-309, looked up, CaMKIIα regulatory segment, residues 290-309; Probably a synthetic peptide; also called AA CaMKIIα 290-309; N-terminally shifted regulatory segment peptide (AA)) [CaMKIIα 290-309 peptide AA (T305A/T306A)]"
